Measured values from patent publication US20200199204A1 (UNITED STATES OF AMERICA AS REPRESENTED BY THE SECRETARY …, published 2020).

Columns and labels:
Experiment in all cases: cell-based or functional assay
[1] = biological target: SIV Env of SIVmac251.30 (nonHIV control), on Env-pseudovirus (SIVmac251.30)
[2] = biological target: HIV-1 Env of strain CNE3 (clade AE), on Env-pseudovirus (HIV-1 strain CNE3)
[3] = biological target: HIV-1 Env of strain TH976.17 (clade AE), on Env-pseudovirus (HIV-1 strain TH976.17)

Binder	IC50, neutralization of Env-pseudovirus (TZM-bl assay) [1]	IC50, neutralization of Env-pseudovirus (TZM-bl assay) [2]	IC50, neutralization of Env-pseudovirus (TZM-bl assay) [3]
CAP256-VRC26.09 (antibody, V domains shown) VH: EVQLVESGGGVVQPGRSLTLSCAASQFNFANYGMHWVRQAPGKGLEWVASISNDGTKKYHEESVWGRFTISKDNSKSTLFLQMNSLRIEDTALYFCVKDQREDECEEWWSDYYDFGRELPCRKSRGLGLAGIFDMWGHGTMVTVSS VL: QSALTQPPSVSAAPGQKVTISCSGNSSNIGNNFVSWYQQLPGTAPKLLIYENNRRPSGIPDRFSGSKSGTSATLAISGLQTGDEADYWCAVWGVRRGAGAVFGAGTKVTVLG	> 50 µg/mL	> 50 µg/mL	> 50 µg/mL
CAP256-VRC26.10 (antibody, V domains shown) VH: QAILVESGGGVVQPGRSLRLSCAASQFTFSGHGLHWVRQAPGKGLEWVASISFAGTKMDYADSVKGRFAISRDNSKNTLYLQMNSLRVEDTALYYCAKDMREYECEYWTSDYYDFGRPQPCIDRRGVVGIFDMWGQGTMVTVST VL: QSVLTQPPSVSAAPGQKVTISCSGSSSNIGDNYVSWYQHLPGTAPKLLIYENTRRPSGIPDRFSGSKSGTSATLAITGLQTGDEADYYCGTWDVRPNRGAVFGTGTKVTVLG	> 50 µg/mL	> 50 µg/mL	> 50 µg/mL
CAP256-VRC26.11 (antibody, V domains shown) VH: EVQLVESGGGVVPPGKSLTLSCVASRFTFSAFGMHWVRQAPGKGLEWVASISFAGIKKYYADSVKGRFSISRDNSNTLFLQMNGLRGEDTGLYHCVKDMRELECEEWASDYYDFGKPQPCLDRRGVSGISAWWGPGTMVTVSS VL: QSVLTQPPSVSAAPGQNVTISCSGPPSHIEKNDVSWYQRLPGMAPKMVIYESKRRPLGIPVRFSASRSGSSATLVITGLQTADEADYYCGTWDGRMNFGTGTTVSVLG		> 50 µg/mL	> 50 µg/mL
CAP256-VRC26.12 (antibody, V domains shown) VH: EVQLVQSGGGVVQPGRSLRLSCAAPYFEFGRYGFHWVRQAPGKGLEWVASISFAGRDYYHSPSVWGRFTISRDNSKNTLYLQMNSLRIEDTALYFCARDLRESECEEWESDYYDFGKKGPCVKPRGVAGGLDLWGQGTMVIVSS VL: QSVLTQPPSVSTAPGQTVTVSCSGGTSNTGNNFVSWYQHLPGTAPKLLIYENNKRPLGVPDRFSGAKSGTSATLAITGLQTGDEGDYYCATWSGSLNIGTGTKVSVLG		> 50 µg/mL	> 50 µg/mL
